Test results from IntAct's records for PubMed 15143163.

B1: Low-density lipoprotein receptor-related protein 5 (Homo sapiens), O75197 (parent)
chain: MEAAPPGPPWPLLLLLLLLLALCGCPAPAAASPLLLFANRRDVRLVDAGGVKLESTIVVSGLEDAAAVDFQFSKGAVYWTDVSEEAIKQTYLNQTGAAVQNVVISGLVSPDGLACDWVGKKLYWTDSETNRIEVANLNGTSRKVLFWQDLDQPRAIALDPAHGYMYWTDWGETPRIERAGMDGSTRKIIVDSDIYWPNGLTIDLEEQKLYWADAKLSFIHRANLDGSFRQKVVEGSLTHPFALTLSGDTLYWTDWQTRSIHACNKRTGGKRKEILSALYSPMDIQVLSQERQPFFHTRCEEDNGGCSHLCLLSPSEPFYTCACPTGVQLQDNGRTCKAGAEEVLLLARRTDLRRISLDTPDFTDIVLQVDDIRHAIAIDYDPLEGYVYWTDDEVRAIRRAYLDGSGAQTLVNTEINDPDGIAVDWVARNLYWTDTGTDRIEVTRLNGTSRKILVSEDLDEPRAIALHPVMGLMYWTDWGENPKIECANLDGQERRVLVNASLGWPNGLALDLQEGKLYWGDAKTDKIEVINVDGTKRRTLLEDKLPHIFGFTLLGDFIYWTDWQRRSIERVHKVKASRDVIIDQLPDLMGLKAVNVAKVVGTNPCADRNGGCSHLCFFTPHATRCGCPIGLELLSDMKTCIVPEAFLVFTSRAAIHRISLETNNNDVAIPLTGVKEASALDFDVSNNHIYWTDVSLKTISRAFMNGSSVEHVVEFGLDYPEGMAVDWMGKNLYWADTGTNRIEVARLDGQFRQVLVWRDLDNPRSLALDPTKGYIYWTEWGGKPRIVRAFMDGTNCMTLVDKVGRANDLTIDYADQRLYWTDLDTNMIESSNMLGQERVVIADDLPHPFGLTQYSDYIYWTDWNLHSIERADKTSGRNRTLIQGHLDFVMDILVFHSSRQDGLNDCMHNNGQCGQLCLAIPGGHRCGCASHYTLDPSSRNCSPPTTFLLFSQKSAISRMIPDDQHSPDLILPLHGLRNVKAIDYDPLDKFIYWVDGRQNIKRAKDDGTQPFVLTSLSQGQNPDRQPHDLSIDIYSRTLFWTCEATNTINVHRLSGEAMGVVLRGDRDKPRAIVVNAERGYLYFTNMQDRAAKIERAALDGTEREVLFTTGLIRPVALVVDNTLGKLFWVDADLKRIESCDLSGANRLTLEDANIVQPLGLTILGKHLYWIDRQQQMIERVEKTTGDKRTRIQGRVAHLTGIHAVEEVSLEEFSAHPCARDNGGCSHICIAKGDGTPRCSCPVHLVLLQNLLTCGEPPTCSPDQFACATGEIDCIPGAWRCDGFPECDDQSDEEGCPVCSAAQFPCARGQCVDLRLRCDGEADCQDRSDEADCDAICLPNQFRCASGQCVLIKQQCDSFPDCIDGSDELMCEITKPPSDDSPAHSSAIGPVIGIILSLFVMGGVYFVCQRVVCQRYAGANGPFPHEYVSGTPHVPLNFIAPGGSQHGPFTGIACGKSMMSSVSLMGGRGGVPLYDRNHVTGASSSSSSSTKATLYPPILNPPPSPATDPSLYNMDMFYSSNIPATARPYRPYIIRGMAPPTTPCSTDVCDSDYSASRWKASKYYLDLNSDSDPYPPPPTPHSQYLSAEDSCPPSPATERSYFHLFPPPPSPCTDSS
partner: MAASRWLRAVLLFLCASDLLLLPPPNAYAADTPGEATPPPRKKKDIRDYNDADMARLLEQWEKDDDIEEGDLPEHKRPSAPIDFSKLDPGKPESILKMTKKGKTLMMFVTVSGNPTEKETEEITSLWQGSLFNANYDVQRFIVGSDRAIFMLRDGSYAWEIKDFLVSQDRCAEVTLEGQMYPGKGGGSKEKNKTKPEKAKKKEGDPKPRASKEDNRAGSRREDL

Variants of: B1
Conditions: with mesd_mouse Mesd
With G171V the “effect of a mutation on the interaction” value was “disrupting interaction”.
